# Source: US20160137713A1 (HANALL BIOPHARMA, published 2016)
# T1: rat FcRn on Rat-2 cells (rat, UniProt P13599 23-366; P07151 21-119)
# T1 construct: whole, on cells
# T1 sequence (looked up): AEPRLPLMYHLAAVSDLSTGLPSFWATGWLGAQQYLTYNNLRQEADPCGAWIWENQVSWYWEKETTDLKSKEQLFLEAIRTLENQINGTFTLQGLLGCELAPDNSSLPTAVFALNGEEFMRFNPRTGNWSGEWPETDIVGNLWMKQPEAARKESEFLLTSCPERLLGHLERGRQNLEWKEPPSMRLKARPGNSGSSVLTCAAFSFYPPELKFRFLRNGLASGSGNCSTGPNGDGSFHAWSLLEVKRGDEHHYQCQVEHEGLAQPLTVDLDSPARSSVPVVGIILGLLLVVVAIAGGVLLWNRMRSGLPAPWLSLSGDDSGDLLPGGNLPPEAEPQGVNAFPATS
# T1 sequence (b2m, looked up): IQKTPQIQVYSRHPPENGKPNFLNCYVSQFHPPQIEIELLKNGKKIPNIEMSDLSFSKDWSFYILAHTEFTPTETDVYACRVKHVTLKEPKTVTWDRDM
# T2: mouse FcRn on 3T3-L1 cells (mouse, UniProt Q61559 22-365; P01887 21-119)
# T2 construct: whole, on cells; also called NIH3T3L1
# T2 sequence (looked up): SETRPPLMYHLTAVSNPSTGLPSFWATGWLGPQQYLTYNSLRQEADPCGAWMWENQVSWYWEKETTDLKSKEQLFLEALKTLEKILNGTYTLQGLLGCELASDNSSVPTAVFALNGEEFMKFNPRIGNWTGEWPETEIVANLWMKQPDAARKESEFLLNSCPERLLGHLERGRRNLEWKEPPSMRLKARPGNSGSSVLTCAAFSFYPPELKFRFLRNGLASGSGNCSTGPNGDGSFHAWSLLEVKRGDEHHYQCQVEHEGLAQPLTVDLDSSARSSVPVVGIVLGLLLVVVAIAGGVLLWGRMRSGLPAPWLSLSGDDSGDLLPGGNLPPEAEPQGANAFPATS
# T2 sequence (b2m, looked up): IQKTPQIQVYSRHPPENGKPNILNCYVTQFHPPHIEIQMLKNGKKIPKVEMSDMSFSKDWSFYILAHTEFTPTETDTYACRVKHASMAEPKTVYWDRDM
# Key:
# soluble human FcRn [1] = target: T3, soluble human FcRn (human, UniProt P55899 24-297; P61769 21-119); assay: SPR, shFcRn immobilised, pH 6.0
# T3 construct: extracellular domain;mature; Non-covalent heterodimer secreted by 293 cells, purified on IgG Sepharose; also called shFcRn; soluble FcRn
# Procedure: (§1) Measurement of the binding ability of antibody by SPR was performed by immobilizing shFcRn as a ligand onto a Proteon GLC chip (Bio-Rad) and measuring affinity.
# (§2) The analysis of ligand and analyte was performed using a Proteon GLC chip, and the interaction was analyzed at a pH of 6.0 and a pH of 7.4. Immobilization of the ligand was activated by injecting a 1:1 mixture of 1×EDAC (EDC) and 1× Surfo-NHS for 5 minutes. shFcRn was diluted in 10 mM sodium acetate (pH 4.5) at a concentration of 25 μg/ml and added to the ligand at a flow rate of 30 μl/min for 5 minutes. […] The analyte antibody was allowed to flow on the immobilized chip at a flow rate of 30 μl/min. […] The association time of the analyte antibody was 240 seconds, and the dissociation time was 600 seconds. Regeneration of the chip was performed by injecting 10 mM glycine (pH 2.5) at a flow rate of 100 μl/min for 18 seconds. Based on sensorgrams resulting from six concentrations of the analyte, kinetics analysis was performed using Proteon XPR36 software.
# soluble human FcRn [2] = target: T3, soluble human FcRn; assay: SPR, shFcRn immobilised, pH 7.4
# Procedure: as §1, §2
# [3] = target: T4, human FcRn on HEK293 cells (human, UniProt P55899 24-365; P61769 21-119); assay: FACS on hFcRn-overexpressing HEK293 cells at pH 6.0, Alexa488 anti-human goat antibody; MFI relative to hIgG1
# T4 construct: whole, on cells; also called hFcRn
# Procedure: (§3) In stable HEK293 cells expressing human FcRn, the degrees of binding of antibody to FcRn at various pHs were analyzed using a FACS system. Specifically, 100,000 stable HEK293 cells were washed with PBS and centrifuged in a table top microcentrifuge at 4500 rpm for 5 minutes to obtain pellets. 1 μg of antibody was added to 100 μl of pH 6.0 or pH 7.4PBS/10 mM EDTA. The cell pellets were resuspended in 100 μl of the antibody solution and incubated on ice for 60 minutes. The cells were washed once with 150 μl of buffer having pH difference, and then pellets were obtained therefrom. Alexa488-labeled anti-human antibody goat antibody (1 mg/ml) was diluted at 1:20 in buffer having pH difference, and the pellets were resuspended in 100 μl of the buffer, and then cultured on ice for 60 minutes. The cells were washed once with 150 μl of buffer having pH difference, and pellets were obtained therefrom and resuspended in buffer having pH difference. The suspension was transferred into a tube for FACS analysis. These cells were analyzed by FACS using BD FACSDiva™ v6.1.3 software (BD Bioscience). The results of the analysis were expressed as Mean Fluorescence Intensity (MFI) (see FIG. 2).
# [4] = target: T4, human FcRn on HEK293 cells; assay: FACS on hFcRn-overexpressing HEK293 cells at pH 7.4, Alexa488 anti-human goat antibody; MFI relative to hIgG1
# Procedure: as §3
# [5] = target: T4, human FcRn on HEK293 cells; assay: FACS competition on hFcRn HEK293 cells at pH 6.0; remaining binding of 100 nM Alexa488-labeled hIgG1 (m14) with 250 nM competitor antibody, percent of the tube without competitor
# Procedure: (§4) In stable HEK293 cells expressing human FcRn, the blocking of the antibody against FcRn was analyzed by FACS. The antibody was diluted in binding buffer (PBS pH 6.0, 10 mM EDTA) at concentrations of 2,000 nM, […] to make 50 μl of dilutions, which were dispensed into tubes. […] Stable HEK293 cells were diluted in binding buffer at a concentration of 2,500,000 cells/ml, and 40 μl of the cell dilution was added to each of the labeled antibody-containing tubes. Thus, a final volume of 100 μl contained 100,000 cells, 100 nM labeled antibody and 1000 nM, 500 nM or 250 nM competitor antibody. The cells were washed once with 150 μl of buffer (pH 6.0), and pellets were obtained therefrom and resuspended in 150 μl of buffer having pH difference. The suspension was transferred into a tube for FACS analysis. The cells were analyzed by FACS using BD FACSDiva™ v6.1.3 software (BD Bioscience). The results of the analysis were expressed as mean fluorescence intensity (MFI).
# (§5) The MFI of the test group was processed after subtracting the MFI (background signal) measured in cells alone.
# [6] = target: T4, human FcRn on HEK293 cells; assay: FACS competition on hFcRn HEK293 cells at pH 6.0; remaining binding of 100 nM Alexa488-labeled hIgG1 (m14) with 500 nM competitor antibody, percent of the tube without competitor
# Procedure: as §4, §5
# [7] = target: T4, human FcRn on HEK293 cells; assay: FACS competition on hFcRn HEK293 cells at pH 6.0; remaining binding of 100 nM Alexa488-labeled hIgG1 (m14) with 1000 nM competitor antibody, percent of the tube without competitor
# Procedure: as §4, §5
# rat FcRn on Rat-2 cells = target: T1, rat FcRn on Rat-2 cells; assay: FACS on rat FcRn-expressing Rat-2 cells at pH 6.0 and pH 7.4, FITC anti-human IgG goat antibody; MFI relative to hIgG
# Procedure: Rat-2 (KCTC #AC28203), rat fibroblasts stably expressing rat FcRn, were cultured in 10% FBS DMEM medium, and then detached from the culture plate by trypsin treatment. The cells were washed three times with cold binding buffer (PBS pH 6.0, 10 mM EDTA), and then diluted in binding buffer at a concentration of 10⁵ cells/ml. 100 μl of the cell dilution was dispensed into each 1.5-ml tube in such a manner that each tube contained 10⁴ cells, and 1 μl of HL161 antibody (1 mg/ml) was added to the dispensed cells. Next, the cells were incubated on ice. As control antibodies, 1 μl of each of mouse 1G3 antibody and human IgG antibody (Abcam, cat#. 409120), which bind to rat FcRn, was used. The 1G3 antibody was produced and purified from mouse hybridoma cells (ATCC CRL2434). The cells were recovered by centrifugation at 4° C. and 4000 rpm for 5 minutes, after which the cells were washed once with binding buffer and resuspended in 100 μl of binding buffer. As FITC-conjugated secondary antibody, 1 μl of anti-human IgG goat antibody (Invitrogen, cat#. A11013) was added to the cells. In the case of the experiment using anti-rat FcRn mouse antibody, the anti-mouse IgG goat antibody (Invitrogen, cat#. A11001) was incubated with the cells on ice for 1 hour, and then the cells were recovered by centrifugation at 4° C. and 4000 rpm for 5 minutes, washed once with binding buffer, resuspended in 400 μl of binding buffer and analyzed by FACS to examine the cross-reactivity of the HL161 antibodies with rat FcRn (see FIG. 4). An experiment at a pH of 7.4 was performed using binding buffer at a pH of 7.4 in the same manner as the experiment using binding buffer at a pH of 6.0. The degree of the binding of each antibody to rat FcRn was presented as relative MFI based on human IgG.
# [8] = target: T2, mouse FcRn on 3T3-L1 cells; assay: FACS on mouse FcRn-expressing 3T3-L1 cells at pH 6.0 and pH 7.4, FITC anti-human IgG goat antibody; MFI relative to hIgG
# Procedure: 3T3-L1 cells stably expressing mouse FcRn were cultured in 10% FCS DMEM medium, and then detached from the culture plate by trypsin treatment. The cells were washed three times with cold binding buffer (PBS, pH 6.0 10 mM EDTA), and then diluted in binding buffer at a concentration of 10⁵ cells/ml. 100 μl of the cell dilution was dispensed into each 1.5-ml tube in such a manner that each tube contained 10⁴ cells, and 1 μl of HL161 antibody (1 mg/ml) was added to the dispensed cells. Next, the cells were incubated on ice. As control antibodies, 1 μl of each of rabbit antibody (Santacruz, sc-66893) and human IgG (Abcam, cat#. 409120), which bind to mouse FcRn, was used. The cells were recovered by centrifugation at 4° C. and 4000 rpm for 5 minutes, after which the cells were washed once with binding buffer and resuspended in 100 μl of binding buffer. As FITC-conjugated secondary antibody, 1 μl of anti-human IgG goat antibody (Invitrogen, Cat*. A11013) was added to the cells. In the case of the experiment using anti-mouse FcRn rabbit antibody, the anti-rabbit antibody was incubated with the cells on ice for 1 hour, and then the cells were recovered by centrifugation at 4° C. and 700 g for 5 minutes, washed once with binding buffer, resuspended in 400 ul of binding buffer and analyzed by FACS to examine the cross-reactivity of the HL161 antibodies with mouse FcRn (see FIG. 4). An experiment at a pH of 7.4 was performed using binding buffer at a pH of 7.4 in the same manner as the experiment using binding buffer at a pH of 6.0. The degree of the binding of each antibody to mouse FcRn was presented as relative MFI based on human IgG.
# T3 sequence (P55899 24-297, chain 1 of 2): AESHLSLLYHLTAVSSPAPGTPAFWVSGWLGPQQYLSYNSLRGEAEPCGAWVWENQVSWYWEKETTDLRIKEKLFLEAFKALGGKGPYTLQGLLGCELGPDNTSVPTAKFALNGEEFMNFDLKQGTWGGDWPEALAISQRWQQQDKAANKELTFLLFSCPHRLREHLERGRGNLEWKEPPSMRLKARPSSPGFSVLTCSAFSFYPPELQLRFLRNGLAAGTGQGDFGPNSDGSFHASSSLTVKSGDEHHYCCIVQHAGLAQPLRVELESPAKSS
# T3 sequence (P61769 21-119, chain 2 of 2): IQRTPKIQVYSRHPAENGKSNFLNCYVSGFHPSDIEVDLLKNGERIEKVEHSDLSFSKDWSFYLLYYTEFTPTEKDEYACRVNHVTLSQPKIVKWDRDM
# T4 sequence (P55899 24-365, chain 1 of 2): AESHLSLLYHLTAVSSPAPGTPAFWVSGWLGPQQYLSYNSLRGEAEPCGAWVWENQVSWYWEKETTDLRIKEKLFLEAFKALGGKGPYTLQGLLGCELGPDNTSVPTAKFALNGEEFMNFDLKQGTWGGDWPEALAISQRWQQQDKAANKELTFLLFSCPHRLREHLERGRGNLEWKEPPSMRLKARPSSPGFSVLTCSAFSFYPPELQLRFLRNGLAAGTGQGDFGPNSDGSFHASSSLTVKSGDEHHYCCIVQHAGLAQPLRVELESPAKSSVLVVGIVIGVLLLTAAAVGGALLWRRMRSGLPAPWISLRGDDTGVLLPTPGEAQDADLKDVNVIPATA
# T4 sequence (P61769 21-119, chain 2 of 2): as the sequence (P61769 21-119, chain 2 of 2) above
binder,measurement,setting,value
"HL161-6C (antibody, V domains shown, Whole human IgG from pNATAB vectors) VH: QVQLVESGAEVKKPGASVKVSCKASGYTFTSYYMHWVRQAPGQGLEWMGIINPSGGSTSYAQKFQGRVTMTRDTSTSTVYMELSSLRSEDTAVYYCARGGGAFDIWGQGTMVTVSS VL: DIQMTQSPSSVSASVGDRVTITCRASQGISNWVAWYQQKPGKAPKLLIYAASSLQSGVPSRFSGSGSGTDFTLTISSLQPEDFAIYYCQQGHSFPYTFGQGTKVEIK",koff,soluble human FcRn [1],0.0019 s⁻¹
same,kon,soluble human FcRn [1],1e+06 M⁻¹ s⁻¹
same,koff,soluble human FcRn [2],0.0031 s⁻¹
same,kon,soluble human FcRn [2],470000 M⁻¹ s⁻¹
same,Relative MFI (Fold),[3],0.9 fold
same,Relative MFI (Fold),[4],1.3 fold
same,Relative MFI(%) at 250nM,[5],88.2%
same,Relative MFI(%) at 500nM,[6],84.7%
same,Relative MFI(%) at 1000nM,[7],81.1%
"HL161-10E (antibody, V domains shown, Whole human IgG from pNATAB vectors) VH: QVQLVESGGGLVQPGGSLRLSCAASGFRFSNFAMTWVRQAPGKGLEWVSTLSGSGGSIHHADSVKGRFTISRDNSKNTLYLQMNSLRAEDTAVYYCAKGPLRGQPAYLDPWGQGTLVTVSS VL: SYELTQPLSVSMSPGQTARITCSGDALSKQYASWYQLKPGQAPVVVMYKDTERPSGIPDRFSGSSSGTTVTLTISGVQAEDEADYYCQSITDKSGTDVIFGGGTKLTVL",kon,soluble human FcRn [2],310000 M⁻¹ s⁻¹
"HL161-1A (antibody, V domains shown, Whole human IgG from pNATAB vectors) VH: QVQLVQSGGGLVQPGRSLRLSCAASGFSFGEYGMHWVRQAPGKGLEWVSGVSWNSGSIAYADSVRGRFTISRDNSKNSLYLQMNSLRAEDTAVYYCARGRSMDVWGQGTTVTVSS VL: NFMLTQPASVSGSPGQTITISCTGSSSDVGGYNYVSWYQQHPGKAPQLIIYDVTKRPSGVSNRFSGSKSGNSASLTISGLQAEDEADYYCSSYSSSTFYVFGTGTKVTVL",binding result,rat FcRn on Rat-2 cells,binds
same,binding result,[8],binds
"HL161-11G (antibody, V domains shown, Whole human IgG from pNATAB vectors; also called h1161-11G) VH: QMQLVESGGGVVQPGRSLRLSCVGSGFNFNSYGIHWVRQAPGKGLEWVGGIFYDGSQVKYADSVKGRVSISRDNSKNTAYLQMNSLRAEDTAVYYCARRNLLDYWGQGTVVTVSS VL: NFMLTQPASVSGSPGQSITISCTGSSSDVGGYNYVSWYQQHPGKAPQLIIYDVTKRPSGVSNRFSGSKSGNSASLTISGLQAEDEADYYCSSYSSSTFYVFGTGTKVTVL",binding result,rat FcRn on Rat-2 cells,binds
same,binding result,[8],binds
